Measured values taken from US6515103B1 (priority 1996, dated 2003).
Several values for one entry are separate records, joined by “and”; a condition that tells them apart may be missing. Equal entries are not always repeated. Where two headings read alike, the source gives them in different places.

Columns and labels:
[1] = system: Frings audiogenic seizure-susceptible mice; conditions: mouse, in vivo
[2] = system: Frings audiogenic seizure-susceptible mice; conditions: for P.I. / PI: Frings audiogenic seizure-susceptible; for P.I. / ED50 / PI / ED50 nmol: mouse, in vivo
NMDA receptor = assay: spermine-stimulated [3H]MK-801 binding assay, inhibition
[3] = Frings audiogenic seizure-susceptible

Row | Molecule | IC50 (NMDA receptor) | also measured
1 | NC(=O)OCC(COC(N)=O)c1ccccc1 [Felbamate, reference compound] | – | TD50 nmol [1]: no marked toxicity; protected (number/tested) printed in ED50 column ([2]; 30 min): 5/8 protected at 525 and 4/8 protected at 630
2 | CC(C(O)c1ccc(O)cc1)N1CCC(Cc2ccccc2)CC1 (stereo not shown) [Ifenprodil, reference compound] | – | TD50 [1, 3]: <25 nmols; P.I. [2]: <1; ED50 [2]: ˜25 nmols
3 | Nc1nnc(-c2cccc(Cl)c2Cl)c(N)n1 [Lamotrigine, reference compound] | – | TD50 nmol [1, 3]: >290 nmol; PI [2]: >2.0; ED50 nmol [2]: 146 nmol
4 | C[C@]12N[C@H](Cc3ccccc31)c1ccccc12 [MK801, dizocilpine, reference compound] | – | TD50 [1, 3]: 1.227 nmols; P.I. [2]: 1.9; ED50 [2]: 0.641 nmols
5 | CCC1(c2ccccc2)C(=O)NC(=O)NC1=O [Phenobarbitol, reference compound] | – | TD50 nmol [1, 3]: 68.8 nmol; PI [2]: 0.5; ED50 nmol [2]: 145 nmol
6 | CC1(C)O[C@@H]2[C@@H](CO[C@@]3(COS(N)(=O)=O)OC(C)(C)O[C@@H]23)O1 [Topiramate, reference compound] | – | TD50 nmol [1]: no marked toxicity; ED50 nmol [2]: >150 nmol
7 | CCCC(CCC)C(=O)O [Valproic Acid, reference compound] | – | TD50 [1, 3]: >6000 <12,000; P.I. [2]: 1.1-2.2; PI [2]: 1.1-2.2; ED50 nmol [2]: 566 nmol; ED50 [2]: 5644 nmols
8 | (A^7,10)1-12 Con G (peptide) | 300 nM | –
9 | (A^7,10)1-13 Con G (peptide) | 253 nM | –
10 | (A^7,10,14)1-14 Con G (peptide) | 232 nM | –
11 | (A^7,10,14)1-15 Con G (peptide) | 34 nM | –
12 | (A^7,10,14)1-16 Con G (peptide) | 37 nM | –
13 | A^3 Con G (peptide) | 9100 nM | –
14 | A^4 Con G (peptide) | > 20000 nM | –
15 | A^7,10,14 Con G (peptide) | 88 nM | –
16 | A^7,Y^10 Con G (peptide) | 79 nM | –

Row | Molecule | IC50 (NMDA receptor) | also measured
17 | A^10 Con G (peptide) | 1100 nM | –
18 | A^14 Con G (peptide) | 160 nM | –
19 | E^4 Con G (peptide) | > 20000 nM | –
20 | E^7,10,14 Con G (peptide) | > 20000 nM | –
21 | S^3 Con G (peptide) | 3600 nM | –
22 | S^4 Con G (peptide) | > 20000 nM | –
23 | S^7 Con G (peptide) | 250 nM | –
24 | S^10 Con G (peptide) | 1800 nM | –
25 | S^14 Con G (peptide) | 160 nM | –
26 | Sp^3 Con G (peptide) | 900 nM | –
27 | Sp^4 Con G (peptide) | > 20000 nM | –
28 | Sp^7 Con G (peptide) | 1200 nM | –
29 | Sp^10 Con G (peptide) | 560 nM | –
30 | Sp^14 Con G (peptide) | 1590 nM | –
31 | Y^3 Con G (peptide) | 960 nM | –
32 | Y^7 Con G (peptide) | 960 nM | –
